Measurements: publication PMC8387239, “Structural and functional characterization of the intracellular filament-forming nitrite oxidoreductase multiprotein complex” (Nature Microbiology, 2021)
Values belong to the molecule of their own block, whether it stands above or below them.

Tests used:
[1] = molecular target: Broful_01488, NXR-T homologue from Brocadia fulgida, recombinant, N-terminal His-tag cleaved (Brocadia fulgida); assay: crystal structure; Broful_01488 after cleavage of the N-terminal His-tag; 0.02 M LiCl, 0.02 M glycine pH 10.0, 33% PEG 1000, 0.05 M MgCl2; 4.0-4.5 Å, partial model
[2] = molecular target: T1, anammoxosomal tubules (NXR A, B, C and T subunits) (Candidatus Kuenenia stuttgartensis, UniProt Q1PZD8); assay: spectrophotometric, ferricyanide reduction at […] nm; format: biochemical; conditions: 2 mM sodium nitrite; 800 µM ferricyanide; 50 mM KPi, 150 mM NaCl, pH 7.25; 35 °C; without dodecyl maltoside
T1 construct: gene narG; native tubules purified from K. stuttgartiensis cells by size exclusion and sucrose density gradient; with nitrite oxidoreductase subunit B, iron-sulfur subunit (NarH-like); nitrite oxidoreductase subunit C, haem b-containing subunit; nitrite oxidoreductase tubule-inducing subunit T, monohaem cytochrome c

[3] = molecular target: NXR-T (Kustd1705), recombinant, as used for analytical ultracentrifugation (tagged version not stated) (Kuenenia stuttgartiensis); assay: AUC; sedimentation velocity and sedimentation equilibrium; 25 mM HEPES/KOH pH 7.5, 25 mM KCl; 25,000 or 30,000 r.p.m., 24 h, 20 °C; scans at 415 nm
[4] = molecular target: NXR-T (Kustd1705), tubule-inducing NXR subunit, recombinant, N-terminal His-tag cleaved (Kuenenia stuttgartiensis); assay: cryo-EM structure; helical reconstruction of tubules reconstituted from KsNXR-ABC and Kustd1705, 5.8 Å after density modification
purified protein [5] = substrate: O=NO; assay: purified protein; format: biochemical, Candidatus Kuenenia stuttgartensis; conditions: 800 µM ferricyanide as electron acceptor, 50 mM KPi, 150 mM NaCl, pH 7.25, 35 °C
purified protein [6] = substrate: O=[N+]([O-])O; assay: purified protein; format: biochemical, Candidatus Kuenenia stuttgartensis; conditions: reduced methyl viologen as electron donor, 50 mM KPi, pH 7.2, 35 °C, anaerobic

T1 sequence (Q1PZD5 1-410 partner, one chain of several): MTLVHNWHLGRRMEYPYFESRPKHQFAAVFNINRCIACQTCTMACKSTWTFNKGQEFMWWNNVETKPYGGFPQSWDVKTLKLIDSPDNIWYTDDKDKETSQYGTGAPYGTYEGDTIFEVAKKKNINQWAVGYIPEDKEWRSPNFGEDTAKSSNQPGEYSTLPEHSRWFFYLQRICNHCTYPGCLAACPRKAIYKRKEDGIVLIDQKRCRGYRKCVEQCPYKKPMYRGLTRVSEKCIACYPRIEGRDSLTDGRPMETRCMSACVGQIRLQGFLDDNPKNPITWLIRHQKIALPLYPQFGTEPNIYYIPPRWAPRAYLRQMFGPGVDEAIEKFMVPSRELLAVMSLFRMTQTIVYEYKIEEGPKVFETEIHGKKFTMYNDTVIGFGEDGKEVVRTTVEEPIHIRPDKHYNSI
T1 sequence (Q1PZD4 29-322 partner, one chain of several): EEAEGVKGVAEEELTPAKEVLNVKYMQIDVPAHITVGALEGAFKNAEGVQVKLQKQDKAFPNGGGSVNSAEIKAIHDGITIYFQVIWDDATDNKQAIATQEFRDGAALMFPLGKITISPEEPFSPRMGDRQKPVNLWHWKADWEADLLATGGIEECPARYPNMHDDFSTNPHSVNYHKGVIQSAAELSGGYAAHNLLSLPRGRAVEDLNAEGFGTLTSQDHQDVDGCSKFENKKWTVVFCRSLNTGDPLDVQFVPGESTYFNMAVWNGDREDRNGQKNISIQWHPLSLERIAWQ
T1 sequence (A0A2C9CDL6 21-180 partner, one chain of several): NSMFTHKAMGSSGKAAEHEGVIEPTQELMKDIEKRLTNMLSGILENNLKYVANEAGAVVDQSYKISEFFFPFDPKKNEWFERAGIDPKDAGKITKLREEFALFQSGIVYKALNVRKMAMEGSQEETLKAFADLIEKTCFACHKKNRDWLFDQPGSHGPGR

Molecule: O=NO [nitrite]
spectrophotometric, ferricyanide reduction at 420 nm [2]: can be disassembled by adding the detergent dodecyl maltoside, show nitrite oxidation activity

Molecule: NXR-T (Kustd1705), tubule-inducing NXR subunit, recombinant, N-terminal His-tag cleaved (natural protein)
stoichiometry N [4]: 2

B1: KsNXR-ABC (Candidatus Kuenenia stuttgartensis) (protein)
chain: FRLLKPAVVVDNPLDTYPDRRWESVYRDQYQYDRTFTYCCSPNDTHACRIRAFVRNNVMMRVEQNYDHQNYSDLYGNKATRNWNPRMCLKGYTFHRRVYGPYRLRYPLIRKGWKRWADDGFPELTPENKTKYMFDNRGNDELLRASWDEAFTYASKGIIHITKKYSGPEGAQKLIDQGYPKEMVDRMQGAGTRTFKGRGGMGLLGVIGKYGMYRFNNCLAIVDAHNRGVGPDQALGGRNWSNYTWHGDQAPGHPFSHGLQTSDVDMNDVRFSKLLIQTGKNLIENKMPEAHWVTEVMERGGKIVVITPEYSPSAQKADYWIPIRNNTDTALFLGITKILIDNKWYDADYVKKFTDFPLLIRTDTLKRVSPKDIIPNYKLQDISDGPSYHIQGLKDEQREIIGDFVVWDAKSKGPKAITRDDVGETLVKKGIDPVLEGSFKLKTIDGKEIEVMTLLEMYKIHLRDYDIDSVVSMTNSPKDLIERLAKDIATIKPVAIHYGEGVNHYFHATLMNRSYYLPVMLTGNVGYFGSGSHTWAGNYKAGNFQASKWSGPGFYGWVAEDVFKPNLDPYASAKDLNIKGRALDEEVAYWNHSERPLIVNTPKYGRKVFTGKTHMPSPTKVLWFTNVNLINNAKHVYQMLKNVNPNIEQIMSTDIEITGSIEYADFAFPANSWVEFQEFEITNSCSNPFIQIWGKTGITPVYESKDDVKILAGMASKLGELLRDKRFEDNWKFAIEGRASVYINRLLDGSTTMKGYTCEDILNGKYGEPGVAMLLFRTYPRHPFWEQVHESLPFYTPTGRLQAYNDEPEIIEYGENFIVHREGPEATPYLPNAIVSTNPYIRPDDYGIPENAEYWEDRTVRNIKKSWEETKKTKNFLWEKGYHFYCVTPKSRHTVHSQWAVTDWNFIWNNNFGDPYRMDKRMPGVGEHQIHIHPQAARDLGIEDGDYVYVDANPADRPYEGWKPNDSFYKVSRLMLRAKYNPAYPYNCTMMKHSAWISSDKTVQAHETRPDGRALSPSGYQSSFRYGSQQSITRDWSMPMHQLDSLFHKAKIGMKFIFGFEADNHCINTVPKETLVKITKAENGGMGGKGVWDPVKTGYTAGNENDFMKKFLNGELIKVDA
notes: untagged; with nitrite oxidoreductase subunit B, iron-sulfur subunit (NarH-like); nitrite oxidoreductase subunit C, haem b-containing subunit
Km (purified protein [5]): 22 ± 5 µM | Km (purified protein [6]): 14 ± 1 µM

The remaining lines, values ahead:

stoichiometry N [1]: 2
Molecule: Broful_01488, NXR-T homologue from Brocadia fulgida, recombinant, N-terminal His-tag cleaved (natural protein)

stoichiometry N [3]: 2
Molecule: NXR-T (Kustd1705), recombinant, as used for analytical ultracentrifugation (tagged version not stated) (natural protein)
